{"source": "patent US20140093973A1", "about": "(BOARD OF REGENTS OF THE UNIVERSITY OF OKLAHOMA, published 2014)", "key": {"[1]": {"target": "soluble HLA-A*0201 (sHLA-A*0201) (human)", "assay": "FP screen"}, "[2]": {"target": "T1, soluble HLA-B*2705 (sHLA-B*2705) (human)", "T1 construct": "Recombinant soluble class I with endogenous peptides, made as m1; negative control", "assay": "FP screen"}, "[3]": {"target": "T2, soluble HLA-A*6801 (sHLA-A*6801) (human)", "T2 construct": "Recombinant soluble class I with endogenous peptides, made as m1", "assay": "FP screen"}, "soluble HLA-B*1302": {"target": "T3, soluble HLA-B*1302 (human)", "T3 construct": "Member of the panel of 53 single-specificity sHLA", "assay": "FP screen"}, "soluble HLA-B*1512 [4]": {"target": "T4, soluble HLA-B*1512 (human)", "T4 construct": "Member of the panel of 53 single-specificity sHLA", "assay": "FP screen"}, "soluble HLA-A*0301 [5]": {"target": "T5, soluble HLA-A*0301 (human)", "T5 construct": "Member of the panel of 53 single-specificity sHLA", "assay": "FP screen"}, "[6]": {"target": "T6, soluble HLA-A*6901 (sHLA-A*6901) (human)", "T6 construct": "Recombinant soluble class I with endogenous peptides, made as m1", "assay": "FP screen"}, "soluble HLA-A*2402 [7]": {"target": "T7, soluble HLA-A*2402 (human)", "T7 construct": "Member of the panel of 53 single-specificity sHLA", "assay": "FP screen"}, "soluble HLA-A*2301 [8]": {"target": "T8, soluble HLA-A*2301 (human)", "T8 construct": "Member of the panel of 53 single-specificity sHLA", "assay": "FP screen"}, "soluble HLA-A*6601 [9]": {"target": "T9, soluble HLA-A*6601 (human)", "T9 construct": "Member of the panel of 53 single-specificity sHLA", "assay": "FP screen"}, "soluble HLA-B*4501 [10]": {"target": "T10, soluble HLA-B*4501 (human)", "T10 construct": "Member of the panel of 53 single-specificity sHLA", "assay": "FP screen"}, "soluble HLA-A*3002 [11]": {"target": "T11, soluble HLA-A*3002 (human)", "T11 construct": "Member of the panel of 53 single-specificity sHLA", "assay": "FP screen"}, "soluble HLA-B*1801 [12]": {"target": "T12, soluble HLA-B*1801 (human)", "T12 construct": "Member of the panel of 53 single-specificity sHLA", "assay": "FP screen"}, "soluble HLA-B*4002 [13]": {"target": "T13, soluble HLA-B*4002 (human)", "T13 construct": "Member of the panel of 53 single-specificity sHLA", "assay": "FP screen"}, "soluble HLA-B*4001 [14]": {"target": "T14, soluble HLA-B*4001 (human)", "T14 construct": "Member of the panel of 53 single-specificity sHLA", "assay": "FP screen"}, "soluble HLA-B*4402 [15]": {"target": "T15, soluble HLA-B*4402 (human)", "T15 construct": "Member of the panel of 53 single-specificity sHLA", "assay": "FP screen"}, "soluble HLA-A*0101 [16]": {"target": "T16, soluble HLA-A*0101 (human)", "T16 construct": "Member of the panel of 53 single-specificity sHLA", "assay": "FP screen of 53 sHLA with FITC-peptide"}, "soluble HLA-A*2902 [17]": {"target": "T17, soluble HLA-A*2902 (human)", "T17 construct": "Member of the panel of 53 single-specificity sHLA", "assay": "FP screen of 53 sHLA with FITC-peptide"}, "soluble HLA-A*3601 [18]": {"target": "T18, soluble HLA-A*3601 (human)", "T18 construct": "Member of the panel of 53 single-specificity sHLA", "assay": "FP screen of 53 sHLA with FITC-peptide"}, "soluble HLA-A*3402 [19]": {"target": "T19, soluble HLA-A*3402 (human)", "T19 construct": "Member of the panel of 53 single-specificity sHLA", "assay": "FP screen of 53 sHLA with FITC-peptide"}, "soluble HLA-A*2601 [20]": {"target": "T20, soluble HLA-A*2601 (human)", "T20 construct": "Member of the panel of 53 single-specificity sHLA", "assay": "FP screen of 53 sHLA with FITC-peptide"}, "soluble HLA-B*1501 [21]": {"target": "T21, soluble HLA-B*1501 (human)", "T21 construct": "Member of the panel of 53 single-specificity sHLA", "assay": "FP screen of 53 sHLA with FITC-peptide"}, "B*0702T": {"target": "B*0702T (human, UniProt P61769)", "assay": "FP competition against 1.9 nM FITC-labeled P1(B*0702), 40 µg/ml sHLA B*0702T (955)"}, "[22]": {"target": "soluble HLA-A*0201 (sHLA-A*0201) (human)", "assay": "FP screen", "remark": "listed apart in the source"}, "[23]": {"target": "T1, soluble HLA-B*2705 (sHLA-B*2705)", "assay": "FP screen", "remark": "listed apart in the source"}, "soluble HLA-A*0101 [24]": {"target": "T16, soluble HLA-A*0101", "assay": "FP screen"}, "soluble HLA-A*3601 [25]": {"target": "T18, soluble HLA-A*3601", "assay": "FP screen"}, "soluble HLA-A*2601 [26]": {"target": "T20, soluble HLA-A*2601", "assay": "FP screen"}, "soluble HLA-B*1512 [27]": {"target": "T4, soluble HLA-B*1512", "assay": "FP screen", "remark": "listed apart in the source"}, "[28]": {"target": "T6, soluble HLA-A*6901 (sHLA-A*6901)", "assay": "FP screen", "remark": "listed apart in the source"}, "soluble HLA-A*2402 [29]": {"target": "T7, soluble HLA-A*2402", "assay": "FP screen", "remark": "listed apart in the source"}, "soluble HLA-A*2301 [30]": {"target": "T8, soluble HLA-A*2301", "assay": "FP screen", "remark": "listed apart in the source"}, "soluble HLA-B*4501 [31]": {"target": "T10, soluble HLA-B*4501", "assay": "FP screen", "remark": "listed apart in the source"}, "soluble HLA-A*3002 [32]": {"target": "T11, soluble HLA-A*3002", "assay": "FP screen", "remark": "listed apart in the source"}, "soluble HLA-B*1801 [33]": {"target": "T12, soluble HLA-B*1801", "assay": "FP screen", "remark": "listed apart in the source"}, "soluble HLA-B*4002 [34]": {"target": "T13, soluble HLA-B*4002", "assay": "FP screen", "remark": "listed apart in the source"}, "soluble HLA-B*4001 [35]": {"target": "T14, soluble HLA-B*4001", "assay": "FP screen", "remark": "listed apart in the source"}, "soluble HLA-B*4402 [36]": {"target": "T15, soluble HLA-B*4402", "assay": "FP screen", "remark": "listed apart in the source"}, "[37]": {"target": "T22, soluble HLA-A*4301 (sHLA-A*4301) (human)", "T22 construct": "Recombinant soluble class I with endogenous peptides, made as m1", "assay": "FP screen"}, "soluble HLA-A*2902 [38]": {"target": "T17, soluble HLA-A*2902", "assay": "FP screen of 53 sHLA with FITC-peptide", "remark": "listed apart in the source"}, "soluble HLA-A*3402 [39]": {"target": "T19, soluble HLA-A*3402", "assay": "FP screen of 53 sHLA with FITC-peptide", "remark": "listed apart in the source"}, "soluble HLA-B*1501 [40]": {"target": "T21, soluble HLA-B*1501", "assay": "FP screen of 53 sHLA with FITC-peptide", "remark": "listed apart in the source"}, "soluble HLA-A*0301 [41]": {"target": "T5, soluble HLA-A*0301", "assay": "FP screen of 53 sHLA with FITC-peptide"}, "soluble HLA-A*6601 [42]": {"target": "T9, soluble HLA-A*6601", "assay": "FP screen of 53 sHLA with FITC-peptide"}}, "note": "Where two headings read alike, the source gives them in different places. Ends that are not written are not given here."}
{"binder": "YTDGVPLKY (also: FITC-labeled, position not given here)", "note": "[YTDGVPLKY, FITC-labeled A1-like peptide]", "values": [{"measurement": "binding result", "setting": "[1]", "value": "no binding (tested: 100 ug/ml sHLA)"}, {"measurement": "binding result", "setting": "[2]", "value": "no binding (tested: 100 ug/ml sHLA)"}, {"measurement": "binding result", "setting": "[3]", "value": "no binding (tested: 100 ug/ml sHLA)"}, {"measurement": "binding result", "setting": "soluble HLA-B*1302", "value": "no binding (tested: 100 ug/ml sHLA)"}, {"measurement": "binding result", "setting": "soluble HLA-B*1512 [4]", "value": "no binding (tested: 100 ug/ml sHLA)"}, {"measurement": "binding result", "setting": "soluble HLA-A*0301 [5]", "value": "no binding (tested: 100 ug/ml sHLA)"}, {"measurement": "binding result", "setting": "[6]", "value": "no binding (tested: 100 ug/ml sHLA)"}, {"measurement": "binding result", "setting": "soluble HLA-A*2402 [7]", "value": "no binding (tested: 100 ug/ml sHLA)"}, {"measurement": "binding result", "setting": "soluble HLA-A*2301 [8]", "value": "no binding (tested: 100 ug/ml sHLA)"}, {"measurement": "binding result", "setting": "soluble HLA-A*6601 [9]", "value": "no binding (tested: 100 ug/ml sHLA)"}, {"measurement": "binding result", "setting": "soluble HLA-B*4501 [10]", "value": "no binding (tested: 100 ug/ml sHLA)"}, {"measurement": "binding result", "setting": "soluble HLA-A*3002 [11]", "value": "no binding (tested: 100 ug/ml sHLA)"}, {"measurement": "binding result", "setting": "soluble HLA-B*1801 [12]", "value": "no binding (tested: 100 ug/ml sHLA)"}, {"measurement": "binding result", "setting": "soluble HLA-B*4002 [13]", "value": "no binding (tested: 100 ug/ml sHLA)"}, {"measurement": "binding result", "setting": "soluble HLA-B*4001 [14]", "value": "no binding (tested: 100 ug/ml sHLA)"}, {"measurement": "binding result", "setting": "soluble HLA-B*4402 [15]", "value": "no binding (tested: 100 ug/ml sHLA)"}, {"measurement": "binding result", "setting": "soluble HLA-A*0101 [16]", "value": "binds"}, {"measurement": "binding result", "setting": "soluble HLA-A*2902 [17]", "value": "binds"}, {"measurement": "binding result", "setting": "soluble HLA-A*3601 [18]", "value": "binds"}, {"measurement": "binding result", "setting": "soluble HLA-A*3402 [19]", "value": "binds"}, {"measurement": "binding result", "setting": "soluble HLA-A*2601 [20]", "value": "binds"}, {"measurement": "binding result", "setting": "soluble HLA-B*1501 [21]", "value": "binds"}]}
{"binder": "LVMAPRTVL", "values": [{"measurement": "IC50", "setting": "B*0702T", "value": 276, "unit": "nM"}]}
{"binder": "SLFRAVIKK (also: FITC-labeled, position not given here)", "note": "[SLFRAVIKK, FITC-labeled A3-like peptide]", "values": [{"measurement": "binding result", "setting": "[22]", "value": "no binding (tested: 100 ug/ml sHLA)"}, {"measurement": "binding result", "setting": "[23]", "value": "no binding (tested: 100 ug/ml sHLA)"}, {"measurement": "binding result", "setting": "soluble HLA-A*0101 [24]", "value": "no binding (tested: 100 ug/ml sHLA)"}, {"measurement": "binding result", "setting": "soluble HLA-A*3601 [25]", "value": "no binding (tested: 100 ug/ml sHLA)"}, {"measurement": "binding result", "setting": "soluble HLA-A*2601 [26]", "value": "no binding (tested: 100 ug/ml sHLA)"}, {"measurement": "binding result", "setting": "soluble HLA-B*1512 [27]", "value": "no binding (tested: 100 ug/ml sHLA)"}, {"measurement": "binding result", "setting": "[28]", "value": "no binding (tested: 100 ug/ml sHLA)"}, {"measurement": "binding result", "setting": "soluble HLA-A*2402 [29]", "value": "no binding (tested: 100 ug/ml sHLA)"}, {"measurement": "binding result", "setting": "soluble HLA-A*2301 [30]", "value": "no binding (tested: 100 ug/ml sHLA)"}, {"measurement": "binding result", "setting": "soluble HLA-B*4501 [31]", "value": "no binding (tested: 100 ug/ml sHLA)"}, {"measurement": "binding result", "setting": "soluble HLA-A*3002 [32]", "value": "no binding (tested: 100 ug/ml sHLA)"}, {"measurement": "binding result", "setting": "soluble HLA-B*1801 [33]", "value": "no binding (tested: 100 ug/ml sHLA)"}, {"measurement": "binding result", "setting": "soluble HLA-B*4002 [34]", "value": "no binding (tested: 100 ug/ml sHLA)"}, {"measurement": "binding result", "setting": "soluble HLA-B*4001 [35]", "value": "no binding (tested: 100 ug/ml sHLA)"}, {"measurement": "binding result", "setting": "soluble HLA-B*4402 [36]", "value": "no binding (tested: 100 ug/ml sHLA)"}, {"measurement": "binding result", "setting": "[37]", "value": "no binding (tested: 100 ug/ml sHLA)"}, {"measurement": "binding result", "setting": "soluble HLA-A*2902 [38]", "value": "binds"}, {"measurement": "binding result", "setting": "soluble HLA-A*3402 [39]", "value": "binds"}, {"measurement": "binding result", "setting": "soluble HLA-B*1501 [40]", "value": "binds"}, {"measurement": "binding result", "setting": "soluble HLA-A*0301 [41]", "value": "binds"}, {"measurement": "binding result", "setting": "soluble HLA-A*6601 [42]", "value": "binds"}]}
